Results on three substances are retold here after paper doi:10.1101/2022.11.09.515855.

In data set [1] the target is T1, Gac (C-terminal domain of GyrA, recombinant) (Borrelia burgdorferi B31) (UniProt O51396).
T1 sequence: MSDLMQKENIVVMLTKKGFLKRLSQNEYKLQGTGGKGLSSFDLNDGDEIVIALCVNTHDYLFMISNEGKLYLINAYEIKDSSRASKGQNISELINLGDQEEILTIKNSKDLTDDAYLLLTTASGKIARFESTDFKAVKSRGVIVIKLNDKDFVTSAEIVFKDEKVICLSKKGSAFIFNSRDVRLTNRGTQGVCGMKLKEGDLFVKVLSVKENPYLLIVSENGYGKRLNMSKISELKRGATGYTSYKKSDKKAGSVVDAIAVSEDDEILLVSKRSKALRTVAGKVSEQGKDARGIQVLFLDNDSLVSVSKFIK
In words: competition.

The target in data set [2] is T1, Gac (C-terminal domain of GyrA, recombinant) (Borrelia burgdorferi B31). In words: competition. This is another data set of the same source.

Read-outs that look alike come from different tables or passages of the source.

For B31 ospC operator/promoter unlabeled, the binding signal (fold reduction of shift) in data set [1] is 2.6.
In the case of Ip89 ospC operator/promoter unlabeled, the values for the binding signal (fold reduction of shift) in data set [1] and in data set [2] were 2 and over 8, respectively.
Take empty pCR2.1 amplicon: in data set [1], the binding signal (fold change of shift) is under 1.3.
